Experimental data as given in US20250296996A1 (BROADWING BIO, published 2025).

Experiments:
P62 (huANGPTL7-his) [1] = target: T1, P62 (huANGPTL7-his) (human, UniProt O43827 27-346); assay: BLI Octet HTX; IgG on AHC sensor; P62 0.343-250 nM
T1 construct: not shown: C-terminal short linker and His tag
T1 chain: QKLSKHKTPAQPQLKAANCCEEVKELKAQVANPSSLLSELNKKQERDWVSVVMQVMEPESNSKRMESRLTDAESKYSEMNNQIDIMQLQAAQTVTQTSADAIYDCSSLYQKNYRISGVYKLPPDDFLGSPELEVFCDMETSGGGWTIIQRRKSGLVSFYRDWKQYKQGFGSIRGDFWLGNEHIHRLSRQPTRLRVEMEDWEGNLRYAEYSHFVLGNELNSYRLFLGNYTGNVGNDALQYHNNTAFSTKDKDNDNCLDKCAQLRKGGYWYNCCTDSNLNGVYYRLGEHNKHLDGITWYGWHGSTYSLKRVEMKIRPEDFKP
Experimental: (§1) Experiments were also conducted to determine the reactivity and dissociation constants (KD) of anti-ANGPTL7 antibodies with the human ANGPTL7-his protein. Binding experiments were performed on Octet HTX (ForteBio) in 1×PBS, pH 7.4, 0.1 mg/mi BSA, 0.05% Sodium Azide, and 0.02% Tween 20. To measure monovalent binding kinetics, antibodies at a concentration of 50 nM were loaded on pre-hydrated AHC biosensors for 5 min. The loaded sensors were dipped into monovalent P62 (huANGPTL7-his) at a range of concentration from 0.343-250 nM (a serial 3-fold dilution) for 5 min association, followed by 10 min dissociation.

[2] = target: T2, muANGPTL7-his (R&D Systems) (mouse, UniProt Q8R1Q3 22-337, limits assumed); assay: BLI Octet HTX; IgG on AHC sensor; muANGPTL7-his at 200 nM
T2 construct: Bought protein; also called mouse ANGPTL7 protein
T2 sequence (looked up): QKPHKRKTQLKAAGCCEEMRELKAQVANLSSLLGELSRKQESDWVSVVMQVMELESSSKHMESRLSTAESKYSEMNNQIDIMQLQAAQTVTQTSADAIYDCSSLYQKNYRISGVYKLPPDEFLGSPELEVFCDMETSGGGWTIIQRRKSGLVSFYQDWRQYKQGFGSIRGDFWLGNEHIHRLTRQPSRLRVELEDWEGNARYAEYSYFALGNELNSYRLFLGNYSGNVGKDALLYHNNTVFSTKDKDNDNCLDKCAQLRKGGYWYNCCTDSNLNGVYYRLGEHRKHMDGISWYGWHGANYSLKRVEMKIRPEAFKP
In short: (§2)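 Anti-ANGPTL7 antibodies (50 nM) were loaded on AHC biosensors in PBS pH 7.4 with BSA, azide and Tween 20. Sensors were dipped in monovalent mouse ANGPTL7-his (200 nM) for 5 min association and 10 min dissociation. KD came from a 1:1 fit, and responses were taken at the end of association.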

P66 (rabbit ANGPTL7-his) = target: T3, P66 (rabbit ANGPTL7-his) (rabbit, UniProt G1T4P1 27-344); assay: BLI Octet HTX; IgG on AHC sensor; P66 at 200 nM
T3 construct: mature; also called rabbit ANGPTL7 protein
T3 sequence: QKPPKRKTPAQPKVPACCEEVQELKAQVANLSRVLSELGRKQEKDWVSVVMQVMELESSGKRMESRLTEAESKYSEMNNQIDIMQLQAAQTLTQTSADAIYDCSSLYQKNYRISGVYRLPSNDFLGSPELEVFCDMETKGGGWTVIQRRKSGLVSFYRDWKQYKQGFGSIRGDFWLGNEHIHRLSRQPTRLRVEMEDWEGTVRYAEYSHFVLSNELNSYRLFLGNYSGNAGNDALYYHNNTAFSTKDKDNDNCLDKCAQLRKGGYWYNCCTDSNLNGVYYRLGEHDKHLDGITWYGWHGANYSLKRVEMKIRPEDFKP
Experimental: Experiments were also conducted to determine the reactivity and dissociation constants ([…]) of anti-ANGPTL7 antibodies with the rabbit ANGPTL7 protein. Binding experiments were performed on Octet HTX (ForteBio) in Rx PBS, pH 7.4, 0.1 mg/mi BSA, 0.05% Sodium Azide, and 0.02% Tween 20. Antibodies at a concentration of 50 nM were loaded on pre-hydrated AHC biosensors for 5 min. The loaded sensors were dipped into monovalent P66 (rabbit ANGPTL7-his) at a concentration of 200 nM for 5 min of association, followed by 10 min of dissociation. […] Responses (nm) at the end of association were also determined (Table 6).

[3] = target: T2, muANGPTL7-his (R&D Systems); assay: BLI Octet HTX; IgG on AHC sensor; muANGPTL7-his at 200 nM; 1:1 fit
In short: as §2

P62 (huANGPTL7-his) [4] = target: T1, P62 (huANGPTL7-his); assay: BLI Octet HTX; IgG on AHC sensor; P62 0.343-250 nM; global 1:1 fit
Experimental: as §1

B1: ATX-P-443 (antibody, human IgG1, kappa, N297A, V domains shown)
VH: QVQLVQSGAEVKKPGASVKVSCKASGYTFTSYGISWVRQAPGQGLEWMGWIIAYNGNTNYAQKLQGRITMTTNTSTNTAYMELRSLRSDDTAVYYCGRDTGFSFDYWGQGTLVTVSS
VL: not shown
notes: Full chains (VH + hIgG1-Agly-Fc)
B1: no binding (tested: 250 nM) (P62 (huANGPTL7-his) [1]); no binding (tested: 200 nM) [2]; no binding (tested: 200 nM) (P66 (rabbit ANGPTL7-his)).

B2: ATX-P-428 (antibody, human IgG1, kappa, N297A, V domains shown)
VH: QVQLVQSGAEVKKPGASVKVSCKASGYTFSSYGISWVRQAPGQGLEWMGWISAYNGNTNYAQNLRGRVAMTTDTSTTTAYMELRSLRSDDTAVYYCARVSLVWFGELPRGFDYWGQGTLVTVSS
VL: not shown
notes: as for B1
With B2 the binding result (P62 (huANGPTL7-his) [1]) was “no binding (tested: 250 nM)”, the Response [3] was 0.04 nm and the binding result [2] was “no binding (tested: 200 nM)”. B2: no binding (tested: 200 nM) (P66 (rabbit ANGPTL7-his)).

B3: ATX-P-449 (antibody, human IgG1, kappa, N297A, V domains shown)
VH: QVQLVESGGGVVQPGRSLRLSCAASGFAFSSYGMHWVRQAPGKGLEWVAVISYYGSNKYYADSVKGRFTISRDNSKNTLYLQMNSLRAEDTAVYHCARGITMDVWGKGTTVTVSS
VL: EIVLTQSPATLSLSPGERATLSCRASQSVSSYLAWYQQKPGQAPRLLIYDASNRATGIPARFSGSGSGTDFTLTISSLEPEDFAVYYCQQRSNWPLTFGGGTKVEIKR
notes: as for B1
B3 was tested, and the Kd [3] was 0.857 nM, the Response [3] was 0.75 nm and the binding result (P62 (huANGPTL7-his) [4]) was “binds”.
